{
  "source": "paper PMC3050594",
  "about": "(Nature structural & molecular biology, 2010)",
  "target": "RSV F0 Fd glycoprotein (Human respiratory syncytial virus; …, UniProt P03420, stabilised, glycosylated)",
  "assay": "SEC",
  "data": [
    {"binder": "palivizumab Fab (Fab, V domains shown) VH: QVTLRESGPALVKPTQTLTLTCTFSGFSLSTSGMSVGWIRQPPGKALEWLADIWWDDKKDYNPSLKSRLTISKDTSKNQVVLKVTNMDPADTATYYCARSMITNWYFDVWGAGTTVTVSS VL: DIQMTQSPSTLSASVGDRVTITCKCQLSVGYMHWYQQKPGKAPKLLIYDTSKLASGVPSRFSGSGSGTEFTLTISSLQPDDFATYYCFQGSGYPFTFGGGTKLEIK", "values": [
      {"measurement": "stoichiometry N", "result": 2.97, "unit": "Fabs per trimer"}
    ]}
  ]
}
